This experiment concerns the target SARS-CoV-2 Wuhan D614G full-length Spike protein (SARS-CoV-2) (UniProt P0DTC2). The experiment in a line: cell-based or functional assay.

In turn, “Anti-Nucleocapsid (Neg Control) (antibody)” came in with a Pseudovirus Neutralization greater than 50 µg/mL.
